Experimental data published in publication PMC4574351, “Tubulin cofactors and Arl2 are cage-like chaperones that regulate the soluble αβ-tubulin pool for microtubule dynamics” (eLife, 2015).
Values belong to the substance of their own block, whether it stands above or below them.

Columns and labels:
[1] = target: TBC-DEG:αβ-tubulin complex (S. cerevisiae | porcine) (UniProt P40987)
[2] = target: TBC-DEG complex (TBCD-TBCE-Arl2 GTPase heterotrimer) (S. cerevisiae) (UniProt P40987); assay: SEC-MALS; WTC-03S5 column; purified TBC-DEG (subunits co-expressed and co-purified), αβ-tubulin, TBCC and their complexes; ternary complex with GDP·ALFx (wild type) or GTP (Q73L)
[3] = target: TBC-DEG complex (TBCD-TBCE-Arl2 GTPase heterotrimer) (S. cerevisiae) (UniProt P40987)
[4] = target: TBC-DEG complex (TBCD-TBCE-Arl2 GTPase heterotrimer) (S. cerevisiae) (UniProt P40987); remark: listed apart in the source

Chain of TBC-DEG complex (TBCD-TBCE-Arl2 GTPase heterotrimer) (S. cerevisiae) (P40987 whole entry, chain 1 of 3): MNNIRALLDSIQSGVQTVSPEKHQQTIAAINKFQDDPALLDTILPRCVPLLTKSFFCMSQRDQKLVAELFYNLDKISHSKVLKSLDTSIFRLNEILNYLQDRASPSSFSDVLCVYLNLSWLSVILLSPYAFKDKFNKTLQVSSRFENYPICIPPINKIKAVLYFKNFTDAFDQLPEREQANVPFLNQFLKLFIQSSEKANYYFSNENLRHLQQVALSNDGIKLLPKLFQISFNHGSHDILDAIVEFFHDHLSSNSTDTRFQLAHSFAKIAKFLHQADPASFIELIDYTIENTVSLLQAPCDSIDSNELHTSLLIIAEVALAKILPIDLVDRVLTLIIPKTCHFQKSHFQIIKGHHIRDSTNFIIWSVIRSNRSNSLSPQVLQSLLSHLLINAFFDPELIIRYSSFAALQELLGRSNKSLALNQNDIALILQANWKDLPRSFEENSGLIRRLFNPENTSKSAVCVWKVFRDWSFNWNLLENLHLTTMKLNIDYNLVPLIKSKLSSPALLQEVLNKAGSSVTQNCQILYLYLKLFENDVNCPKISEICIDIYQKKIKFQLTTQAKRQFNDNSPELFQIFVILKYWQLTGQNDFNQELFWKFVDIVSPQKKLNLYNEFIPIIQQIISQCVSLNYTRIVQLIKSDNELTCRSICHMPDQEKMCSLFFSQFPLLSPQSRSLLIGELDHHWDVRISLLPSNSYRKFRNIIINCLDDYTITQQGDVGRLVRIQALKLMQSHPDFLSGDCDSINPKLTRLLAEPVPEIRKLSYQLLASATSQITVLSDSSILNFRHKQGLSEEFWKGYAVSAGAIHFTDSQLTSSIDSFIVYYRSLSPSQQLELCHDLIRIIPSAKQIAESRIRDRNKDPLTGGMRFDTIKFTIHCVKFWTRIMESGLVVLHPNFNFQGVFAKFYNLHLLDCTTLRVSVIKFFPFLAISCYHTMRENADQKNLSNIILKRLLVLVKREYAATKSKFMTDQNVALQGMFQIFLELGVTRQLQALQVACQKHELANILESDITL
Chain of TBC-DEG complex (TBCD-TBCE-Arl2 GTPase heterotrimer) (S. cerevisiae) (P39937 whole entry, chain 2 of 3, further chain): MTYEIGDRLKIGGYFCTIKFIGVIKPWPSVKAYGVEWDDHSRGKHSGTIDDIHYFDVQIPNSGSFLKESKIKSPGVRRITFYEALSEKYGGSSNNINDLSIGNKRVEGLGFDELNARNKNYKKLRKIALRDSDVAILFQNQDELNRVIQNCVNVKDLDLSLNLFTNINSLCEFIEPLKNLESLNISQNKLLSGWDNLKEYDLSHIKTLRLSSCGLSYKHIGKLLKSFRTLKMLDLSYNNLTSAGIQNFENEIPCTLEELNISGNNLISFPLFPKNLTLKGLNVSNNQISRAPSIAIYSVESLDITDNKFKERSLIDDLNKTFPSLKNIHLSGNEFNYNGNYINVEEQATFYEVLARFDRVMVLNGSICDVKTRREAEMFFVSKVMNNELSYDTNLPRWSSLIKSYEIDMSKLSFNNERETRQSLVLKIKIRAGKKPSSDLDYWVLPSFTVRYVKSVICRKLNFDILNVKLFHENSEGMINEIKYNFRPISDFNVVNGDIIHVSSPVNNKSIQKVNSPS
Chain of TBC-DEG complex (TBCD-TBCE-Arl2 GTPase heterotrimer) (S. cerevisiae) (P39110 whole entry, chain 3 of 3, further chain): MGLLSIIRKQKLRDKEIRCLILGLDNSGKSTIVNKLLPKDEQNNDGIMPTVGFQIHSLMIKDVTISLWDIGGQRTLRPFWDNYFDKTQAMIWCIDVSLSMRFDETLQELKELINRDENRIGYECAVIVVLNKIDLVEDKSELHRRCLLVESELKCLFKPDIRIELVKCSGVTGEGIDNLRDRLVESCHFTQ

steady-state GTP hydrolysis kcat, 1 μM TBC-DEG:1 μM TBCC-Δ233-245:1 μM αβ-tub [1]: 0.34 min⁻¹ µM⁻¹
Substance: TBCC loop-deleted mutant Δ233-245 (from UniProt P46670 1-232; P46670 246-267) (natural protein)

stoichiometry N [2]: 1
steady-state GTP hydrolysis kcat (malachite green), 1 μM TBC-DEG:1 μM αβ-tub [3]: 0.4 min⁻¹ µM⁻¹
steady-state GTP hydrolysis kcat, 1 μM TBC-DEG and 1 μM TBCC with αβ-tubulin titrated 0.25-3.0 μM (kcat 1.10 to 2.77) [3]: 2.77 min⁻¹ µM⁻¹
steady-state GTP hydrolysis kcat at 3 μM αβ-tubulin, 1:3:1 TBCC:αβ-tubulin:TBC-DEG (number as in the text) [4]: 3 min⁻¹
Substance: porcine brain αβ-tubulin dimer (from UniProt P02550 1-451; P02554 1-445) (complex)

steady-state GTP hydrolysis kcat (malachite green), 1 μM TBC-DEG:1 μM TBCC [3]: 0.77 min⁻¹ µM⁻¹
Substance: Tubulin cofactor C (TBCC), S. cerevisiae Cin2p (from UniProt P46670 1-268) (natural protein)
